According to patent US20100311820, “NUCLEIC ACID MODULATORS OF GLYCOPROTEIN VI” (Regado Biosciences, Inc, published 2010):

B1: RB549 (ssRNA)
RNA: GGAGGACGGCGCGCCUGGCAUAAGCCUCC
modifications: RB540 with PS G8-G9
B2: RB520 (ssRNA)
RNA: GGGAGGACGGCGCGCCUGGCAUAAGCCUCCC
modifications: RB490 with 2'-OMe G6,C15,A21,A23,A24,G25
B3: RB448 (ssRNA)
RNA: GGGAGGACGGCGCUAACGCCUGGCAUAAGCCUCCC
modifications: 2'-F C and U; 2'-OH A and G; 3' idT
B4: RB548 (ssRNA)
RNA: GGAGGACGGCGCGCCUGGCAUAAGCCUCC
modifications: RB540 with PS C7-G8
B5: RB528 (ssRNA)
RNA: GGGAGGACGGCGCGCCUGGCAUAAGCCUCCC
modifications: RB524 with 2'-OMe A7, 2'-deoxy G9
B6: RB517 (ssRNA)
RNA: GGGAGGACGGCGCGCCUGGCAUAAGCCUCCC
modifications: RB490 with 2'-OMe G6,A7,C8
B7: RB527 (ssRNA)
RNA: GGGAGGACGGCGCGCCUGGCAUAAGCCUCCC
modifications: RB524 with 2'-OMe A7,G9
B8: RB523 (ssRNA)
RNA: GGGAGGACGGCGCGCCUGGCAUAAGCCUCCC
modifications: RB520 with 2'-OMe A7,G9
B9: EF-3 T3 (RB445) (ssRNA)
RNA: GGGAGGACGUGCGGAUCACACCGCGCUUGCGUAAGCCUCCC
modifications: 2'-F C and U; 2'-OH A and G
B10: EF-31 T4 (RB441) (ssRNA)
RNA: GGGAGGACGUGCGGUCUAAGCUGCGCUGGCAUAAGCCUCCC
modifications: 2'-F C and U; 2'-OH A and G
B11: RB551 (ssRNA)
RNA: GGAGGACGGCGCGCCUGGCAUAAGCCUCC
modifications: RB540 with 2'-OH G8
B12: EF-31 T8 (ssRNA)
RNA: GGGAGGACGGCCUAAGCCUGGCAUAAGCCUCCC
modifications: 2'-F C and U; 2'-OH A and G
B13: RB553 (ssRNA)
RNA: GGAGGACGGCGCGCCUGGCAUAAGCCUCC
modifications: RB551 with PS A6-C7
B14: RB453 (ssRNA)
RNA: GGGAGGACGGCGCUAACGCCUGGCAUAAGCCUCCC
modifications: RB448 with 2'-OMe throughout Stem 1
B15: RB462 (ssRNA)
RNA: GGGAGGACGGCGCUAACGCCUGGCAUAAGCCUCCC
modifications: RB448 with 2'-OMe G23,C30
B16: RB552 (ssRNA)
RNA: GGAGGACGGCGCGCCUGGCAUAAGCCUCC
modifications: RB551 with PS G5-A6
B17: RB566 (ssRNA)
RNA: GGAGGACGGCGCGCCUGGCAUAAGCCUCC
modifications: RB540 with PS G8-G9 and G9-C10
B18: RB570 (ssRNA)
RNA: GGAGGACGGCGCGCCUGGCAUAAGCCUCC
modifications: RB542 with 5' branched 40 kDa PEG
B19: RB569 (ssRNA)
RNA: GGAGGACGGCGCGCCUGGCAUAAGCCUCC
modifications: RB560 with 5' branched 40 kDa PEG
B20: RB542 (ssRNA)
RNA: GGAGGACGGCGCGCCUGGCAUAAGCCUCC
modifications: RB540 with 2'-OMe G1 and 5' hexylamino linker
B21: RB567 (ssRNA)
RNA: GGAGGACGGCGCGCCUGGCAUAAGCCUCC
modifications: RB566 with 2'-OMe G1 and 5' hexylamino linker
B22: RB560 (ssRNA)
RNA: GGAGGACGGCGCGCCUGGCAUAAGCCUCC
modifications: RB549 with 2'-OMe G1 and 5' hexylamino linker

Target: T1, Glycoprotein VI extracellular domain (Gln21-Lys267) (Homo sapiens) (UniProt Q9HCN6)
T1 sequence: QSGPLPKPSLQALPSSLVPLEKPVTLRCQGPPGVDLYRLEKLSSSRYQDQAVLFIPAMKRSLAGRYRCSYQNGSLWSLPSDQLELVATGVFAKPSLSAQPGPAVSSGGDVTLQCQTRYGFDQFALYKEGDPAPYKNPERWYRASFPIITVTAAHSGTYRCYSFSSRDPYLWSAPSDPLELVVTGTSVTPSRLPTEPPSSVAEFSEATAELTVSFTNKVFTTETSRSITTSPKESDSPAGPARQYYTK
Assay: filter
Details: 2'-OH G1; 2'-deoxy A6,G8,G9; 2'-F C7,C14,C15,U16,C19,U21; all others 2'-OMe; hexaethylene glycol spacer between G11 and C12; 3' idT; buffer F, 37 C

Question: For GGAGGACGGCGCGCCUGGCAUAAGCCUCC [RB540], which Kd is on record?
Answer: Its Kd is 15 nM.

Same assay, conditions: RB490 pattern; hexaethylene glycol spacer between G11 and C12; 3' idT

Question: How did the Kd turn out when GGAGGACGGCGCGCCUGGCAUAAGCCUCC [RB507] was run?
Answer: Its Kd is less than 10 nM.

Same assay, conditions: RB520 pattern; hexaethylene glycol spacer between G11 and C12; 3' idT; buffer F, 37 C

Question: For GGAGGACGGCGCGCCUGGCAUAAGCCUCC [RB521], which Kd is on record?
Answer: The Kd was 6 nM.

Same assay, conditions: RB526 pattern; hexaethylene glycol spacer between G11 and C12; 3' idT

Question: Which Kd does the source give for GGAGGACGGCGCGCCUGGCAUAAGCCUCC [RB537] here?
Answer: Its Kd is less than 10 nM.

Same assay, conditions: RB535 with 2'-OMe G9

Question: Which Kd does the source give for GGGAGGACGACGCGUCUGGCAUAAGCCUCCC [RB536] here?
Answer: Its Kd is greater than 40 nM.

Target: T2, Glycoprotein VI extracellular domain (Gln21-Lys267) (Homo sapiens, UniProt Q9HCN6 SEQ:1-247)
T2 chain: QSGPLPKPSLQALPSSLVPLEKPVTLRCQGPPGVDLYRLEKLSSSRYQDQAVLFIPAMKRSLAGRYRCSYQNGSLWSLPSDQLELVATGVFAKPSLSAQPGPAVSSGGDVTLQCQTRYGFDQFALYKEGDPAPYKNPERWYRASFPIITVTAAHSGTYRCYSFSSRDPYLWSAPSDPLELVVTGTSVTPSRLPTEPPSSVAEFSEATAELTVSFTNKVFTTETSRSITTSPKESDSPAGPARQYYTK
Assay: filter; buffer F, 37 C
Details: tags: C-terminal His6; R&D Systems 3627-GP; label: 5'-32P

Question: For B1, which Kd is on record?
Answer: Its Kd is roughly 6.48 nM.

Question: For B2, which Kd is on record?
Answer: Its Kd is roughly 6 nM.

Question: Which Kd does the source give for B3 here?
Answer: The Kd was roughly 14.5 nM.

Target: T2, Glycoprotein VI extracellular domain …
Assay: filter
Details: tags: C-terminal His6; R&D Systems 3627-GP; label: 5'-32P
Description: (§1) Enrichment of the ligand libraries for GPVI was monitored in direct binding studies utilizing radiolabeled ligand RNA from respective rounds of SELEX and soluble GPVI. Binding studies were performed with trace P³² end-labeled RNA added to serial dilutions of GPVI in Binding Buffer F. To prepare radiolabeled RNAs for binding studies, one hundred picomoles of RNA was dephosphorylated with Bacterial Alkaline Phopshatase at 50° C. for 1 hour. The reaction was phenol:chloroform:isoamyl alcohol (25:24:1) extracted, chloroform: isoamyl:alcohol (24:1) extracted, and ethanol precipitated. Three pmoles of dephosphorylated RNA was end labeled with T4 Poylnucleotide Kinase with supplied buffer, and 20 μCi of γ-P³²-ATP and subsequently cleaned with a Biorad MicroBio Spin P-30 spin column. End-labeled RNA was diluted to a final concentration of 2000 cpm/μL and heat denatured at 65° C. for 5 minutes. RNA and GPVI dilutions were equilibrated at 37° C. prior to use. RNA (5 μL) was added to varying concentrations of GPVI (15 μL) at 37° C. and incubated together for 5 to 15 minutes. The complexed RNA/GPVI protein mixture was then loaded over a Protean BA85 nitrocellulose membrane, overlayed on a Genescreen Plus Nylon membrane, in a 96 well vacuum manifold system with washing. The membranes were exposed to a phosphorimager screen, scanned, and quantitated with a Molecular Dynamics Storm 840 Phosphorimager. The fraction bound was calculated by dividing the counts on the nitrocellulose by the total counts and adjusting for the background. Results for binding of enriched ligand libraries from round 10 E2 and round 10 EF of the SELEX as compared to the GPVI-naïve starting ligand library are shown in FIG. 3.

Question: Which Kd does the source give for B4 here?
Answer: Its Kd is 15.5 nM.

Question: Which Kd does the source give for B5 here?
Answer: Its Kd is greater than 40 nM.

Question: With B6 as the molecule, how does the Kd read?
Answer: The Kd was greater than 40 nM.

Question: How did the Kd turn out when B7 was run?
Answer: The Kd was greater than 40 nM.

Question: Which Kd does the source give for B8 here?
Answer: Its Kd is greater than 40 nM.

Question: For B9, which Kd is on record?
Answer: Its Kd is greater than 40 nM.

Question: How did the Kd turn out when B10 was run?
Answer: Its Kd is greater than 40 nM.

Question: B11 was tested. Which Kd did it give?
Answer: The Kd was 15.5 nM.

Question: B12 was tested. Which Kd did it give?
Answer: The Kd was greater than 40 nM.

Question: How did the Kd turn out when B13 was run?
Answer: The Kd was 15.5 nM.

Question: B14 was tested. Which Kd did it give?
Answer: Its Kd is less than 10 nM.

Question: For B15, which Kd is on record?
Answer: The Kd was less than 10 nM.

Question: For B16, which Kd is on record?
Answer: Its Kd is 15.5 nM.

Target: T2, Glycoprotein VI extracellular domain …
Assay: filter; p374 states 2-4 nM; buffer F (150 mM NaCl, 2 mM CaCl2), 37 C
Details: tags: C-terminal His6; R&D Systems 3627-GP; label: 5'-32P
Description: as §1, with “The complexed RNA/GPVI protein mixture was then loaded over a Protean BA85 nitrocellulose membrane, overlayed on a Genescreen Plus Nylon membrane, in a 96 well vacuum manifold system with washing.” left out, “Results for binding of enriched ligand libraries from round 10 E2 and round 10 EF of the SELEX as compared to the GPVI-naïve starting ligand library are shown in FIG. 3.” left out

Question: With B17 as the molecule, how does the Kd read?
Answer: The Kd was roughly 2.45 nM.

Target: T2, Glycoprotein VI extracellular domain …
Assay: competition; competition with radiolabeled parent
Details: tags: C-terminal His6; R&D Systems 3627-GP

Question: For B18, which Kd is on record?
Answer: Its Kd is 15.5 nM.

Question: How did the Kd turn out when B19 was run?
Answer: Its Kd is less than 10 nM.

Question: For B20, which Kd is on record?
Answer: The Kd was 15.5 nM.

Question: For B21, which Kd is on record?
Answer: The Kd was less than 10 nM.

Question: With B22 as the molecule, how does the Kd read?
Answer: The Kd was less than 10 nM.
